Test results published in article PMC7465815, “The CARF Protein MM_0565 Affects Transcription of the Casposon-Encoded cas1-solo Gene in Methanosarcina mazei Gö1” (Biomolecules, 2020).

Experiments:
[1] = target: T1, His6-MM_0565 (CARF-wHTH protein) (Methanosarcina mazei Gö1) (UniProt Q8PZC9); assay: EMSA; details: MST: 25 nM labelled protein in His-tag buffer (250 mM NaH2PO4, 1.5 M NaCl, pH 8) + 1 mg/mL BSA, 0.05% Tween20, DNA from annealing buffer (50 mM TES/KOH pH 7.6 …)
T1 sequence: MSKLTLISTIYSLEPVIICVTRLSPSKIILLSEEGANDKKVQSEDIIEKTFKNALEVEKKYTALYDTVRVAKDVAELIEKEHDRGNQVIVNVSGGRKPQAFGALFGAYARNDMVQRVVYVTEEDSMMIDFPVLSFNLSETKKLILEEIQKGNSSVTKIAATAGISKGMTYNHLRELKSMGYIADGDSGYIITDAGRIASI

[2] = target: T1, His6-MM_0565 (CARF-wHTH protein) (Methanosarcina mazei Gö1); assay: competition; details: MST: 25 nM labelled protein in His-tag buffer (250 mM NaH2PO4, 1.5 M NaCl, pH 8) + 1 mg/mL BSA, 0.05% Tween20, DNA from annealing buffer (50 mM TES/KOH pH 7.6 …)
[3] = target: T2, His6-MM_0565 (CARF-wHTH protein) (Methanosarcina mazei Gö1, UniProt Q8PZC9 1-200); assay: MST; MST: 25 nM labelled protein in His-tag buffer (250 mM NaH2PO4, 1.5 M NaCl, pH 8) + 1 mg/mL BSA, 0.05% Tween20, DNA from annealing buffer (50 mM TES/KOH pH 7.6); details: protein: recombinant, tags: N-terminal His6 (pET28a), chain copies: 2
T2 sequence: T1 sequence

[4] = target: the molecule itself; assay: SEC; purified His6-MM_0565 on an ENrich SEC 650 column; 50 mM TES buffer pH 7.6, 300 mM KCl; 0.5 mL/min; calibrated with a gel-filtration mass standard
[5] = target: the molecule itself; assay: SDS-PAGE and Western blot of cell extracts (dimer band kept under denaturing conditions); M. mazei cell extracts (750 µg), cells grown under standard conditions (38.5 mM NaCl) or with 500 mM NaCl; samples boiled 5 min at 95 °C, 12% SDS-PAGE; polyclonal antibodies against MM_0565

**Q.** For “AGGGCAAAAATTTCCGTTATTTGGTCAGAAAAGGCCTGAAATGAGCCCTTTTTTGGGGCTAAAATTCTTGCTGGAAAATTATCAAACCCTTTATAAATACAAGAAAAAAAGGGTTTTTTTAGTGGTTTGGAAAC (double strand) [leader III-C PCR fragment]”, which binding [1] is on record?
**A.** binds

**Q.** With “AGGGCAAAAATTTCCGTTATTTGGCCAGAAAAGGCCTGAAATGAGCCCTTTTTCAGGGCTAAAATTCTTGCTGGAAAATTATCAAACCCTTTATAAATACAAGAAAAACTTCTCATACGCAGATATTCCGGTAACAGCAATCTACGCATTTTCT (double strand) [leader I-B PCR fragment]” as the molecule, how does the binding [2] read?
**A.** binds

**Q.** What about the binding [1] of the same molecule?
**A.** binds

B1: conserved leader region 2 (3' fragment) (dsDNA)
DNA 1: CAAGAATTTTAGCCCTGAAAAAGGGCTCATTTCAGGCCTTTTCTGGCCAAATAACGGAAATTTTTGCCCT
DNA 2: AGGGCAAAAATTTCCGTTATTTGGCCAGAAAAGGCCTGAAATGAGCCCTTTTTCAGGGCTAAAATTCTTG
**Q.** Does B1 bind [3]?
**A.** no binding

B2: His6-MM_0565 (CARF protein MM_0565 of Methanosarcina mazei Gö1 with N-terminal His6 tag) (natural protein, UniProt Q8PZC9 1-200, looked up)
chain: T1 sequence
notes: MM_0565 gene product of Methanosarcina mazei Gö1; N-terminal CARF domain and C-terminal winged helix-turn-helix domain; gene PCR-amplified (0.6 kbp fragment) and cloned into pET28a(+); approximately 22 kDa; Homodimer by size-exclusion chromatography; also called purified MM_0565; His6-tagged MM_0565; source: E. coli BL21-CodonPlus-RIL (plasmid pRS923, pET28a), purified (Ni-NTA agarose); not …
**Q.** For B2, which “stoichiometry N” value [4] is on record?
**A.** 2

B3: MM_0565, endogenous in Methanosarcina mazei Gö1 (natural protein, UniProt Q8PZC9 1-200, looked up)
chain: T1 sequence
notes: MM_0565 gene product of Methanosarcina mazei Gö1, detected in cell extracts with polyclonal antibodies against MM_0565 as bands of 25 and 50 kDa; Both a monomer band and a dimer band were seen on the denaturing gel; also called dimeric MM_0565; source: endogenous, M. mazei Gö1 cell extracts
**Q.** B3 was tested. Which “stoichiometry N” value [5] did it give?
**A.** 2

B4: MM_3250 (cas1-solo operon) promoter (dsDNA)
DNA 1: CCGCTCTTACTTATGTACAGAATTGAGTATAACTTTAAGTATAAGTTTGATGTATATTTTGTATATAATT
DNA 2: AATTATATACAAAATATACATCAAACTTATACTTAAAGTTATACTCAATTCTGTACATAAGTAAGAGCGG
**Q.** For B4, which Kd ([3]; blunt) is on record?
**A.** 1600 ± 400 nM

B5: conserved leader region 1 (5' fragment, 70 nt) (dsDNA)
DNA 1: TTTTTCTTGTATTTATAAAGGGTTTGATAATTTTCCAGCAAGAATTTTAGCCCCAAAAAAGGGCTCATTT
DNA 2: AAATGAGCCCTTTTTTGGGGCTAAAATTCTTGCTGGAAAATTATCAAACCCTTTATAAATACAAGAAAAA
**Q.** How did the Kd ([3]; blunt) turn out when B5 was run?
**A.** 960 ± 350 nM

B6: MM_0565 promoter version 1 (wt) (dsDNA)
DNA 1: AACTAAATCCCTATATCGTAAAACATTTAACCAAACCCTACAATACATGACATCTAATGT
DNA 2: ACATTAGATGTCATGTATTGTAGGGTTTGGTTAAATGTTTTACGATATAGGGATTTAGTT
**Q.** With B6 as the molecule, how does the Kd ([3]; blunt) read?
**A.** 285 ± 56 nM

B7: cas8b promoter (CRISPR-Cas I-B operon) (dsDNA)
DNA 1: TCTATTTGCTTATTTTTATAATTATTTTTAGAAATGTATATATAATATGTTAACTATGAACCTTGATGGT
DNA 2: ACCATCAAGGTTCATAGTTAACATATTATATATACATTTCTAAAAATAATTATAAAAATAAGCAAATAGA
**Q.** Does B7 bind ([3]; blunt)?
**A.** no binding
